Measured values from patent US20260184780A1 (MONASH UNIVERSITY, published 2026).
Changes are numbered by the printed parent chain.

T1: hPAR4 (naked) peptide (human)
T1 construct: also called native PAR4 peptide; hPAR4 peptide
T1 peptide: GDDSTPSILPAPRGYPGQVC

T2: human PAR4 on isolated human platelets (human, UniProt Q96RI0 18-385)
T2 construct: Endogenous receptor of donor platelets; donors carry Ala120 and/or Thr120; also called PAR4 on human platelets
T2 sequence: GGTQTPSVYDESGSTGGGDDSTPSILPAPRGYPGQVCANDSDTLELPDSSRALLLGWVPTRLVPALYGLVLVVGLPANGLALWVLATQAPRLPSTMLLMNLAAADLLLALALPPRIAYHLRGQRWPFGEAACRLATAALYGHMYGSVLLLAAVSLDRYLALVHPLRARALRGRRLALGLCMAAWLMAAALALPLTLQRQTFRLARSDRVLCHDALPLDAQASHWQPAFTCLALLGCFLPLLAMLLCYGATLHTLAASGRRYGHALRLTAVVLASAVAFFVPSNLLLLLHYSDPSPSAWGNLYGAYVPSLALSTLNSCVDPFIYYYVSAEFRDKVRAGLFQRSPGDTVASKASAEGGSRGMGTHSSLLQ

T3: hPAR4 1-9 peptide (human)
T3 construct: Range counted on the hPAR4 immunising peptide; also called peptide 1-9
T3 peptide: GDDSTPSIL

T4: hPAR4 11-20 peptide (human)
T4 construct: Range counted on the hPAR4 immunising peptide; the C-terminal cysteine was removed, so nine residues are given; also called peptide 11-20
T4 peptide: APRGYPGQV

T5: hPAR4 (Biotin) peptide (human, biotin on the C-terminal lysine (SKB))
T5 construct: also called hPAR4-biotinylated peptide; biotin-coupled human PAR4 peptide
T5 peptide: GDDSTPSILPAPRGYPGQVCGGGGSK

T6: hPAR1 (Biotin) peptide (human, not fully specified; biotin on the C-terminal lysine (SKB))
T6 construct: also called PAR1 peptide; PAR1 screening peptide
T6 peptide: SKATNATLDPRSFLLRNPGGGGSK

T7: hPAR3 (Biotin) peptide (human, biotin on the C-terminal lysine (SKB))
T7 construct: also called PAR3 peptide; PAR3 screening peptide
T7 peptide: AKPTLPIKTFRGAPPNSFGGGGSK

T8: mPAR4 (naked) peptide (mouse)
T8 construct: T0021 says only 'mouse PAR4'; also called mouse PAR4
T8 peptide: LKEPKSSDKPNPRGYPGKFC

T9: hPAR2 (Biotin) peptide (human, not fully specified; biotin on the C-terminal lysine (SKB))
T9 construct: also called PAR2 peptide; PAR2 screening peptide
T9 peptide: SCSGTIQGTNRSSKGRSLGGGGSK

B1: 5H.RF2.A5b.D3.C2 (antibody, IgG2a, V domains shown)
VH: QVQLQQWGAGLLKPSETLALTCAVYGGSLSDYYWSWIRQPPGKGLEWIGEINHSGTTNYNPSLKSRVTISVDTSKKQFSLKLSSVTAADTAVYYCAIEYSNSRGYYYGMDVWGQGTTVTVSS
VL: DIQMTQSPSSLSASAGDRITITCRASQTISNYLNWYQQKPGKAPKLLIYAASSLQSGVPSRFSGSGSGTDFTLTISSLQPEDFASYYCRQNYNTPLTFGGGTKVEIK
notes: also called MoB5H F2
B2: 5I.RG1.D6.C1b (antibody, IgG3, V domains shown)
VH: QVQLQQWGAGLLKPSETLSLACAISSGSFSTYFWRWIRQPPGKGLEWIGEIIHTGSTTYNPSLKSRVTISVDTSKNQLSLKLSSVTAADTAVYYCAFEYSSSGGYYYGMDVWGQGTTVTVSS
VL: DIQMTQSPSSLSASVGDRVTITCRASQSISSYLNWYQQIPGKAPNLLIYAASSLRSGVPSRFSGSGSGTDFTLTISSLQPEDFATYYCQQTYSTPLTFGGGTKVEIK
notes: also called 51.RG1; MoB5I G1
B3: 5G.RA1.E10.G3 (antibody, IgG2a, V domains shown)
VH: QVQLVESGGGVVQPGRSLRLSCAASGFTFSSYGMHWVRQAPGKGLEWVAVIWYDGSNKYYADSVKGRFTISRDNSKNTLYLQMNSLRAEDTAVYYCARETALVRGVPFDYWGQGTLVTVSS
VL: not shown
notes: also called MoB5G A1
B4: 5H.RA3.D3b.A2b (antibody, IgG2a, V domains shown)
VH: QVQLVESGGGVVQPGRSLRVSCAASGFTFSSYGMLWVRQAPGKGLEWVAVIWYDGTKKYYADSLKGRFTISRDNSKYTLYLQMNSLRADDTALYFCARKGARGITGLDYWGQGTLVTVSS
VL: not shown
notes: also called MoB5H A3
B5: 5D.RH4.G7.E6.C7b.G7 (antibody, IgG2a, V domains shown)
VH: QIQLVESGGGVVQPGRSLRLSCAASGFTFSSDGMHWVRQAPGKGLEWVAVIWFDGRNKYYLDSVKGRFTISRDNSKNTLYLQMNSLRAEDTAVYYCARESSISTRPPFDYWGQGTLVTVSS
VL: not shown
notes: Human variable regions on mouse constant regions, IgG2a/K
B6: 5G RG1.D3.C2b (antibody, IgG1, V domains shown)
VH: B3 VH with A23V, F29L, N57S, A61T, T69D, S85I, A101I, V103I, R104G
VL: EIVLTQSPGTLSLSPGERATLSCGASQSIRSNYLAWYQQKPGQAPRLLIYGASSRATGTPDRFSGSGSGTDFTLTITRLEPEDFALYYCQQYGRSYTFGQGTKLEIK
notes: also called MoB5G G1
B7: 5F RE6.D3.E7 (antibody, IgG2a, V domains shown)
VH: B4 VH with V5A, L35H
VL: B1 VL with T28S
notes: also called MoB5F E6
B8: 5H.RD2.A7b (antibody, IgG1, V domains shown)
VH: EVQLVESGGDLVKPGGSLRLSCSASGFTFFNTWMNWVRQAPGKGLEWVGRVKSKNDGGTKDYAAPVTGRFTISRDDSKDTLYLQMNSLKTEDTAVYYCTTDPHYDFWSAYWGQGTLVTVSS
VL: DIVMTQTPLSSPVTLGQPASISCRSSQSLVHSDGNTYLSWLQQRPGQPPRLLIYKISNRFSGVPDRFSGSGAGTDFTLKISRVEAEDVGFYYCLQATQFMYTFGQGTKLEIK
notes: also called MoB5H-RD2.A7b; MoB5H D2
B9: 5G RD6.D1.E11b (antibody, IgG2a, V domains shown)
VH: B3 VH with T28A, K58R, N74T, Y80F, L102M
VL: not shown
B10: 5H RG4.H7b.F5b (antibody, IgG2a, V domains shown)
VH: QVQLVQSGAEVKKPGASVKVSCKASGYTFTGHYFHWVRQAPGQGLEWMGWINPNSGGTNFAQRFQGRVTMTRVTSISTAYMELSGLRSDDTAVYYCARGYYDTSGYYYAFEFWGQGTLVIVSS
VL: not shown

Molecular target: T1, hPAR4 (naked) peptide
Experiment: ELISA, purified mAb on hPAR4 peptide

ELISA Pos:Neg ratio | Binder
8.5 ratio | B1
6.3 ratio | B2

Molecular target: T1, hPAR4 (naked) peptide
Experiment: SPR Biacore T200, mAb captured by anti-mouse Fc, hPAR4 peptide as analyte
Method: A series S CM5 sensor chip was activated with standard EDC/NHS amine coupling chemistry using the manufacturers recommended protocol with Goat anti-mouse IgG Fc. Anti-hPAR4 mAbs were captured at 1-2 ug/ml for 2 minutes at 10 ul/minute on flow cell 2 (FC2) and flow cell 1 (FC1) was used as a reference channel. […] Blank injections of buffer alone were also performed. All injections were performed in duplicate and in a random order.
(§1) The kinetics of the binding interaction between the mAbs and hPAR4 was measured using Surface Plasmon Resonance (SPR; Biacore) by two different methods: 1. Anti-mouse Fc mAb capture method and 2. Streptavidin (SA) chip to capture biotinylated peptide. The ka(on) rate and kd(off) rates and KD were measured and fitted to a Langmuir model using the Biacore evaluation software.

Kd | koff | kon | Binder
38 nM | 0.00227 s⁻¹ | 58400 M⁻¹ s⁻¹ | B1
105 nM | 0.00146 s⁻¹ | 14000 M⁻¹ s⁻¹ | B2

molecular target: T2, human PAR4 on isolated human platelets; experiment: flow cytometry on isolated human platelets

GMFI at 10 ug/ml over isotype control | Binder
25 | B3
100 | B4
33 | B5

Molecular target: T3, hPAR4 1-9 peptide
Experiment: ELISA, peptide coated on the plate, purified mAb, background subtracted
Method: (§2) Briefly the peptides were coated onto a Nunc maxisorp ELISA plate at 10 ug/ml overnight in coating buffer (0.1 M sodium carbonate pH8.0). Purified mAbs diluted in PBS were used in place of supernatant.

binding result | Binder
no binding | B3
no binding | B5

Molecular target: T4, hPAR4 11-20 peptide
Experiment: as above
Method: as §2

binding result | Binder
no binding | B3
no binding | B5

Molecular target: T5, hPAR4 (Biotin) peptide
Experiment: SPR Biacore T200, biotin peptide on SA chip, whole mAb as analyte
Method: as §1

Kd | koff | kon | Binder
0.61 nM | 0.00111 s⁻¹ | 1.84e+06 M⁻¹ s⁻¹ | B1
0.36 nM | 0.000667 s⁻¹ | 1.85e+06 M⁻¹ s⁻¹ | B2

Molecular target: T6, hPAR1 (Biotin) peptide
Experiment: ELISA, hybridoma supernatant

binding to PAR1 ratio | Binder
1.1 ratio | B6
1.1 ratio | B7
1 ratio | B1
1 ratio | B2
1 ratio | B8

Molecular target: T7, hPAR3 (Biotin) peptide
Experiment: ELISA, hybridoma supernatant

binding to PAR3 ratio | Binder
0.8 ratio | B6
0.8 ratio | B7
0.9 ratio | B1
1 ratio | B2
0.9 ratio | B8

Molecular target: T1, hPAR4 (naked) peptide
Experiment: ELISA, hybridoma supernatant

fold binding native vs KLH-linked PAR4 peptide | Binder
11.1 fold | B6
12 fold | B7
11.9 fold | B1
9.2 fold | B2
6 fold | B8

Molecular target: T8, mPAR4 (naked) peptide
Experiment: ELISA, hybridoma supernatant

binding to mouse PAR4 ratio | Binder
8.6 ratio | B6
12.2 ratio | B7
10.4 ratio | B1
9.4 ratio | B2
6.2 ratio | B8

molecular target: T2, human PAR4 on isolated human platelets; experiment: cell-based or functional assay

platelet aggregation, % of control | Binder
< 25 % of control | B6
> 80 % of control | B9
< 25 % of control | B4
> 80 % of control | B1
> 80 % of control | B8
> 80 % of control | B10

Molecular target: T6, hPAR1 (Biotin) peptide
Experiment: ELISA, biotinylated peptide on streptavidin plate, absorbance 405 nm
Method: (§3) Biotinylated peptides (hPAR1-4) were diluted in Wash buffer and allowed to bind to the blocked Streptavidin coated wells at 10 ug/ml (100 ul per well) for 1 hour at room temperature with gentle mixing. Wells were washed 3 times as above and purified anti-hPAR4 mAbs prepared at 10 ug/ml in Wash buffer were allowed to bind (100 ul/well) for 1 hour at room temperature with gentle mixing. The plate was washed 3 times as above and anti-mouse Fc conjugated to Alkaline phosphatase (AP) at 0.3 ug/ml (100 ul) was added to the wells for 1 hour as above. Wells were washed 3 times as above and developed with Alkaline Phosphatase substrate as described for the screening supernatant ELISA.
(§4) To further characterise the purified anti-hPAR4 mAb's the specificity of the mAbs to hPAR1, hPAR2, hPAR3 and hPAR4 biotinylated peptides was performed.

binding result | Binder
no binding (tested: 10 ug/ml) | B3
no binding (tested: 10 ug/ml) | B4
no binding (tested: 10 ug/ml) | B1
no binding (tested: 10 ug/ml) | B2
no binding (tested: 10 ug/ml) | B5

Molecular target: T7, hPAR3 (Biotin) peptide
Experiment: as above
Method: as §3, §4

binding result | Binder
no binding (tested: 10 ug/ml) | B3
no binding (tested: 10 ug/ml) | B4
no binding (tested: 10 ug/ml) | B1
no binding (tested: 10 ug/ml) | B2
no binding (tested: 10 ug/ml) | B5

Molecular target: T9, hPAR2 (Biotin) peptide
Experiment: as above
Method: as §3, §4

binding result | Binder
no binding (tested: 10 ug/ml) | B3
no binding (tested: 10 ug/ml) | B4
no binding (tested: 10 ug/ml) | B1
no binding (tested: 10 ug/ml) | B2
no binding (tested: 10 ug/ml) | B5
